Results on 3 substances are retold here after patent publication US20050095616A1.

Data set [1] concerns the target proteasome. Put plainly: cell-based or functional assay.
In data set [2] the test system is IκB(S32A, S36A)-Bla mutant fusion protein.
The target in data set [3] is IκBα-beta-lactamase (IκBα-Bla) fusion protein, wild type (N-terminal IκBα and C-terminal Bla). Put plainly: cell-based or functional assay.

For ALLN (peptide), the IC50 for inhibition of the TNFα-stimulated decrease in reporter levels in data set [1] came out at 5 µM.

On to IκB kinase (IKK), for which, in data set [2], the “decrease in β-lactamase activity in response to TNFα treatment (10 ng/ml, 30 minutes)” value is “the mutation of serines-32 and -36 abolished the decrease in β-lactamase activity in response to TNFα treatment”.

Regarding IκB kinase (IKK) (enzyme), the decrease in β-lactamase activity of Jurkat IκB-Bla cells after 10 ng/ml TNFα in data set [3] amounted to 2 fold.
